Laboratory results published in paper PMC12533913.

Experiments:
Assay in all cases: SPR
[1] = target: Influenza A H1N1 (A/Puerto Rico/8/34/Mount Sinai) Matrix protein 1 / M1 Protein (His Tag) (Influenza A virus A/Puerto Rico/8/34/Mount Sinai (H1N1)) (UniProt P03485)
[2] = target: Influenza NA protein (recombinant, bought) (Influenza A virus (strain not stated)) (UniProt P03470)
[3] = target: Influenza A virus A/WSN/1933 (H1N1) particles, purified (Influenza A virus A/WSN/1933 (H1N1)) (UniProt P03470)

UniProt P03485, sequence (P03485 whole entry): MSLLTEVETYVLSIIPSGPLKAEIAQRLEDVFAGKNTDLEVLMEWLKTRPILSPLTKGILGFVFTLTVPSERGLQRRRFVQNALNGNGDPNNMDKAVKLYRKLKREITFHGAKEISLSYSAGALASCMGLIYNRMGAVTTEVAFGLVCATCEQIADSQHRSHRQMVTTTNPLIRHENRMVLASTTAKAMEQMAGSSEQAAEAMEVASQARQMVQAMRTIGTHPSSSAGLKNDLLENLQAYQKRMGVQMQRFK

“TfR1 protein (recombinant, bought from Sino Biological) (from UniProt P02786 1-760) (receptor)” showed a Kd [1] of 75.9 nM, a Kd [2] of 42.4 nM and a Kd [3] of 34.6 nM.
